B1: Epidermal growth factor receptor (Drosophila melanogaster (Fruit fly)), P04412 (parent)
chain: MLLRRRNGPCPFPLLLLLLAHCICIWPASAARDRYARQNNRQRHQDIDRDRDRDRFLYRSSSAQNRQRGGANFALGLGANGVTIPTSLEDKNKNEFVKGKICIGTKSRLSVPSNKEHHYRNLRDRYTNCTYVDGNLKLTWLPNENLDLSFLDNIREVTGYILISHVDVKKVVFPKLQIIRGRTLFSLSVEEEKYALFVTYSKMYTLEIPDLRDVLNGQVGFHNNYNLCHMRTIQWSEIVSNGTDAYYNYDFTAPERECPKCHESCTHGCWGEGPKNCQKFSKLTCSPQCAGGRCYGPKPRECCHLFCAGGCTGPTQKDCIACKNFFDEAVSKEECPPMRKYNPTTYVLETNPEGKYAYGATCVKECPGHLLRDNGACVRSCPQDKMDKGGECVPCNGPCPKTCPGVTVLHAGNIDSFRNCTVIDGNIRILDQTFSGFQDVYANYTMGPRYIPLDPERREVFSTVKEITGYLNIEGTHPQFRNLSYFRNLETIHGRQLMESMFAALAIVKSSLYSLEMRNLKQISSGSVVIQHNRDLCYVSNIRWPAIQKEPEQKVWVNENLRADLCEKNGTICSDQCNEDGCWGAGTDQCLTCKNFNFNGTCIADCGYISNAYKFDNRTCKICHPECRTCNGAGADHCQECVHVRDGQHCVSECPKNKYNDRGVCRECHATCDGCTGPKDTIGIGACTTCNLAIINNDATVKRCLLKDDKCPDGYFWEYVHPQEQGSLKPLAGRAVCRKCHPLCELCTNYGYHEQVCSKCTHYKRREQCETECPADHYTDEEQRECFQRHPECNGCTGPGADDCKSCRNFKLFDANETGPYVNSTMFNCTSKCPLEMRHVNYQYTAIGPYCAASPPRSSKITANLDVNMIFIITGAVLVPTICILCVVTYICRQKQKAKKETVKMTMALSGCEDSEPLRPSNIGANLCKLRIVKDAELRKGGVLGMGAFGRVYKGVWVPEGENVKIPVAIKELLKSTGAESSEEFLREAYIMASEEHVNLLKLLAVCMSSQMMLITQLMPLGCLLDYVRNNRDKIGSKALLNWSTQIAKGMSYLEEKRLVHRDLAARNVLVQTPSLVKITDFGLAKLLSSDSNEYKAAGGKMPIKWLALECIRNRVFTSKSDVWAFGVTIWELLTFGQRPHENIPAKDIPDLIEVGLKLEQPEICSLDIYCTLLSCWHLDAAMRPTFKQLTTVFAEFARDPGRYLAIPGDKFTRLPAYTSQDEKDLIRKLAPTTDGSEAIAKPDDYLQPKAAPGPSHRTDCTDEMPKLNRYCKDPSNKNSSTGDDERDSSAREVGVGNLRLDLPVDEDDYLMPTCQPGPNNNNNMNNPNQNNMAAVGVAAGYMDLIGVPVSVDNPEYLLNAQTLGVGESPIPTQTIGIPVMGGPGTMEVKVPMPGSEPTSSDHEYYNDTQRELQPLHRNRNTETRV
partner: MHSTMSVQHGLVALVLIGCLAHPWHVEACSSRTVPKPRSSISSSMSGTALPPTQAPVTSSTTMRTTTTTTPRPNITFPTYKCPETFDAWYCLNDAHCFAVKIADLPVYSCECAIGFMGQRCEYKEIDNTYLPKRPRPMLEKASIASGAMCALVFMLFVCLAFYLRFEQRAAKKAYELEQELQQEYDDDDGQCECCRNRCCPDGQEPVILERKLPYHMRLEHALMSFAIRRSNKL

Variants of: B1
Details: with spitz_drome spi

| Variant | effect of a mutation on the interaction |
| --- | --- |
| Y341E;N342A;T344D;Y346E;V347A;L348D | decreasing interaction |

From IntAct's records for PubMed 20723758
